Experimental data: article PMC10209092

Molecular target: endogenous AMPKα (5'-adenosine monophosphate-activated protein kinase, α subunit), Q13131
Assay: co-immunoprecipitation, quantified band intensity
Conditions: chain shown with the change, n=2 (WT n=3), read off a plot

Sequence of endogenous AMPKα (5'-adenosine monophosphate-activated protein kinase, α subunit), Q13131 (Q13131 whole entry): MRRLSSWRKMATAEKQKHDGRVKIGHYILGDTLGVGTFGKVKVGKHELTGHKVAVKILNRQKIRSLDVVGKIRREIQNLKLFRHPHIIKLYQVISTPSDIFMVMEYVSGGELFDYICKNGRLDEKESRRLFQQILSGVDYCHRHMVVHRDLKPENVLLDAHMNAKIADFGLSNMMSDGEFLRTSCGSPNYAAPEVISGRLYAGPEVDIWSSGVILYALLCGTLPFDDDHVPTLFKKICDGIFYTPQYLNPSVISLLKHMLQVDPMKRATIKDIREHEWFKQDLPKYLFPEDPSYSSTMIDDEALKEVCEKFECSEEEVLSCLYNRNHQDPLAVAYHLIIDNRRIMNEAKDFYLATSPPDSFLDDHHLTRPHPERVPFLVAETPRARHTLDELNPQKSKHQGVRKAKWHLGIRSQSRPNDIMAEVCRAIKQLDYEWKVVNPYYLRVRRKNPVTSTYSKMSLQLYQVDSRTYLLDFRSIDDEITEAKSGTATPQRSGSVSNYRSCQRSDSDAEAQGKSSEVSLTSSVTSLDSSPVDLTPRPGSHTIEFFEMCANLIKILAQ

- response (relative AMPK-ULK1 interaction) (amino acids +, A769662 +, parent: est. 1.2): 1
- response (relative AMPK-ULK1 interaction) (amino acids +, A769662 -, parent: est. 1.0): 0.4
- response (relative AMPK-ULK1 interaction) (amino acids -, A769662 +, parent: est. 1.1): 0.15
- response (relative AMPK-ULK1 interaction) (amino acids -, A769662 -, parent: est. 0.25): 0.1
B1: myc-tagged ULK1 (UNC-51 like kinase 1), wild type, O75385 S556A; T660A (protein)
chain: MEPGRGGTETVGKFEFSRKDLIGHGAFAVVFKGRHREKHDLEVAVKCINKKNLAKSQTLLGKEIKILKELKHENIVALYDFQEMANSVYLVMEYCNGGDLADYLHAMRTLSEDTIRLFLQQIAGAMRLLHSKGIIHRDLKPQNILLSNPAGRRANPNSIRVKIADFGFARYLQSNMMAATLCGSPMYMAPEVIMSQHYDGKADLWSIGTIVYQCLTGKAPFQASSPQDLRLFYEKNKTLVPTIPRETSAPLRQLLLALLQRNHKDRMDFDEFFHHPFLDASPSVRKSPPVPVPSYPSSGSGSSSSSSSTSHLASPPSLGEMQQLQKTLASPADTAGFLHSSRDSGGSKDSSCDTDDFVMVPAQFPGDLVAEAPSAKPPPDSLMCSGSSLVASAGLESHGRTPSPSPPCSSSPSPSGRAGPFSSSRCGASVPIPVPTQVQNYQRIERNLQSPTQFQTPRSSAIRRSGSTSPLGFARASPSPPAHAEHGGVLARKMSLGGGRPYTPSPQVGTIPERPGWSGTPSPQGAEMRGGRSPRPGSSAPEHSPRTSGLGCRLHAAPNLSDLHVVRPKLPKPPTDPLGAVFSPPQASPPQPSHGLQSCRNLRGSPKLPDFLQRNPLPPILGSPTKAVPSFDFPKTPSSQNLLALLARQGVVMTPPRNRALPDLSEVGPFHGQPLGPGLRPGEDPKGPFGRSFSTSRLTDLLLKAAFGTQAPDPGSTESLQEKPMEIAPSAGFGGSLHPGARAGGTSSPSPVVFTVGSPPSGSTPPQGPRTRMFSAGPTGSASSSARHLVPGPCSEAPAPELPAPGHGCSFADPITANLEGAVTFEAPDLPEETLMEQEHTEILRGLRFTLLFVQHVLEIAALKGSASEAAGGPEYQLQESVVADQISLLSREWGFAEQLVLYLKVAELLSSGLQSAIDQIRAGKLCLSSTVKQVVRRLNELYKASVVSCQGLSLRLQRFFLDKQRLLDRIHSITAERLIFSHAVQMVQSAALDEMFQHREGCVPRYHKALLLLEGLQHMLSDQADIENVTKCKLCIERRLSALLTGICA
